Results: publication PMC9598537

Experiments:
[1] = target: AR9 chaperonin (gp228, product of gene 228 of bacteriophage AR9 Bacillus subtilis) (bacteriophage AR9 (Bacillus subtilis phage)); test: cryo-EM structure; purified apo gp228 in 50 mM Tris-HCl pH 7.5, 10 mM MgCl2, 100 mM KCl; single particle analysis, maps with no symmetry and with C7 symmetry; homology model flexibly fitted into the map
[2] = target: AR9 chaperonin (gp228, product of gene 228 of bacteriophage AR9 Bacillus subtilis) (bacteriophage AR9 (Bacillus subtilis phage)); test: SAXS; gp228 at 0.5 to 7.0 mg/mL, 20 °C, P12 beamline PETRA III; oligomeric state from the excluded volume Vp

AR9 chaperonin (gp228, product of gene 228 of bacteriophage AR9 Bacillus subtilis) (natural protein)
stoichiometry N [1]: 7
stoichiometry N [2]: 7
